Source: paper PMC12720418

Biological target: VC1 tandem domains of the receptor for advanced glycation end-products (RAGE)
Assay: ITC; 100 μM calprotectin (CP*) injected into 50 μM RAGE VC1 in the cell; 25°C; 50 mM HEPES pH 7.5, 150 mM NaCl, 10 mM CaCl2; average of three titrations, independent binding model

calprotectin heterodimer of S100A8 (C42S) and S100A9 (C3S) (from UniProt P05109 1-93; P06702 4-114) (complex)
Kd: 380 nM
